# Measurements taken from patent US10654908B2, “Isolated T cell receptors and methods of use therefor” (University of Virginia Patent Foundation, priority 2014, dated 2020).
# Where no end group is shown, it is not given here. [ ]: non-standard residue; d: D form. pS = N[C@@H](COP(=O)(O)O)C(=O)O
# Tests used:
# human CD8 T-cells = assay: IFN-γ ELISpot of human CD8 T-cells cultured 7 days with peptide-pulsed DC; format: cell-based; conditions: for donors with pre-existing memory response: CD45RO+ CD8 T-cells from four donors, 7 days, cutoff >50 spots/25,000 cells; for magnitude of phosphopeptide-specific IFN-γ responses of normal donor T-cells: bulk CD8 T-cells, 7 days with peptide-pulsed autologous DC, restimulated with phosphopeptide-pulsed HLA-A2+ targets
# [1] = Immunization of AAD transgenic mice with phosphopeptide-pulsed DC; conditions: mouse
# [2] = tested on: pCDC25b38-46-pulsed C1R-AAD and C1R-A2 targets; assay: CD107a / IFN-γ flow cytometry of TCR-electroporated human CD8 T-cells on pCDC25b peptide-pulsed targets; format: cell-based
# Experimental: Prior to electroporation, donor T-cells were washed three times in serum-free OPTI-MEM® media (Life Technologies Corporation, Gaithersburg, Md., United States of America) and were suspended at 25×10^6/ml. Cells were mixed with 2 μg IVT RNA of each TCR α and β chain per 10^6 cells and transferred to pre-chilled BTX 2 mm gap cuvettes. Using the BTX T820 electroporation system (BTX Instrument Division, Harvard Apparatus, Inc. Holliston, Mass., United States of America), cells were pulsed at 500V for 0.3 msec. Transfected cells were placed in AIM-V® brand serum-free medium (Life Technologies Corporation, Gaithersburg, Md., United States of America) with 5% AB^+ serum (GEMCELL™; Gemini Bio-Products, West Sacramento, Calif., United States of America) for 8-24 hours and evaluated for TCR expression and functionality.
# 14-16 hours post-electroporation, phosphopeptide-specific murine TCR-transfected human CD8 T-cells were co-cultured in AIM-V (Life Technologies Corporation, Gaithersburg, Md., United States of America) supplemented with 5% human AB^+ serum (GEMCELL™; Gemini Bio-Products, West Sacramento, Calif., United States of America) with peptide-pulsed or unpulsed C1R-AAD, C1R-A2, or cancer cells endogenously expressing the pIRS-21097-1105 or the pCDC25b38-46 phosphopeptide. Cell surface expression of mouse TCRβ, human CD3, and human CD8 molecules on human CD8 T-cells were assessed using antibodies from either Becton Dickinson Bioscience (San Jose, Calif., United States of America) or eBioScience Inc. (San Diego, Calif., United States of America). […] Cells were then stained for surface molecule expression, fixed and permeabilized using CYTOFIX/CYTOPERM™ (Becton Dickinson Bioscience (San Jose, Calif., United States of America) and stained for intracellular cytokine (anti-IFN-γand anti-TNF-α, eBioScience Inc., San Diego, Calif., United States of America). Immunofluoresence was analyzed using the Becton Dickinson FACSCANTO™ I or FACSCANTO™II flow cytometer and analyzed using FlowJo software (Tree Star, Inc., Ashland, Oreg., United States of America).
# [3] = tested on: C1R-A2 cells pulsed with 1 μM phosphopeptide; assay: In vitro cytotoxicity assay (CFSE); format: cell-based, human; conditions: 5 hours co-culture, pulsed versus unpulsed C1R-A2
# Experimental: Phosphopeptide-specific murine TCR-expressing human CD8 T-cells were co-cultured for 5 hours with a 1:1 mix of C1R-A2 cells pulsed with 1 μM phosphopeptide and stained with 1 μM carboxyfluorescein succinimidyl ester (CFSE; Life Technologies) and unpulsed C1R-A2 cells stained with 0.1 μM CFSE. Specific killing was assessed by evaluating percent loss of the peptide-pulsed population relative to the unpulsed population.
# AAD+ SLM2 melanoma cells = assay: Tumor control after adoptive transfer of TCR-expressing human CD8 T-cells; format: in vivo, NOD/SCID/IL-2Rγc−/− mice
# From the text: Seven to 8 week old male […] mice (The Jackson Laboratory, Bar Harbor, Me., United States of America) were inoculated subcutaneously with 1.4×10^6 AAD^+ SLM2 melanoma cells. 3×10^6 human CD8 T-cells expressing either pIRS-2- or pCDC25b-specific TCR, or 1.5×10^6 of both populations, were adoptively transferred 3 days later. An additional 1.5×10^6 T-cells were given 4 days later. All mice received 1500 CU of IL-2 (R&D Systems, Inc., Minneapolis, Minn., United States of America) […]. every other day for 10 days. Tumor size was measured every 2-3 days with a digital caliper, and calculated as L×W (mm^2). Tumor free survival is equal to the measurement day when the tumor size was >30 mm^2.
# Log-rank (Mantel Cox Test) analysis, Cox proportional hazard modeling, and parametric modeling were performed to determine statistical significance where indicated. p values less than 0.05 were considered significant.
# [4] = tested on: HLA-A2+ cancer cell lines; assay: CD107a / IFN-γ flow cytometry after co-culture with human cancer cells; format: cell-based
# Experimental: 14-16 hours post-electroporation, phosphopeptide-specific murine TCR-transfected human CD8 T-cells were co-cultured in AIM-V (Life Technologies Corporation, Gaithersburg, Md., United States of America) supplemented with 5% human AB^+ serum (GEMCELL™; Gemini Bio-Products, West Sacramento, Calif., United States of America) with peptide-pulsed or unpulsed C1R-AAD, C1R-A2, or cancer cells endogenously expressing the pIRS-21097-1105 or the pCDC25b38-46 phosphopeptide. Cell surface expression of mouse TCRβ, human CD3, and human CD8 molecules on human CD8 T-cells were assessed using antibodies from either Becton Dickinson Bioscience (San Jose, Calif., United States of America) or eBioScience Inc. (San Diego, Calif., United States of America). During a 5 hour co-culture of stimulator cells with phosphopeptide-specific murine TCR-transfected human CD8-T cells at 37° C., anti-human CD107a-Alexa 647 antibody (eBioScience Inc., San Diego, Calif., United States of America) was added in the presence of 5 μg/ml Brefeldin A (SIGMA-ALDRICH® Co. LLC, St. Louis, Mo., United States of America), 5 μg/ml Monensin (eBioScience Inc., San Diego, Calif., United States of America) and 300 IU/ml human IL-2 (Chiron Corporation, Emeryville, Calif., United States of America). Cells were then stained for surface molecule expression, fixed and permeabilized using CYTOFIX/CYTOPERM™ (Becton Dickinson Bioscience (San Jose, Calif., United States of America) and stained for intracellular cytokine (anti-IFN-γand anti-TNF-α, eBioScience Inc., San Diego, Calif., United States of America). Immunofluoresence was analyzed using the Becton Dickinson FACSCANTO™ I or FACSCANTO™II flow cytometer and analyzed using FlowJo software (Tree Star, Inc., Ashland, Oreg., United States of America).
# Whether these transfected human CD8 T-cells could recognize endogenously processed and presented pIRS-21097-1105 or pCDC25b38-46 phosphopeptide on HLA-A2^+ cancer cell lines was investigated. To correlate pIRS-21097-1105-specific T-cell recognition with phosphopeptide expression, an antibody specific for the Ser^1100-phosphorylated IRS-2 protein (pSer^1100-IRS-2) as well as an antibody that recognizes total IRS-2 protein (Zarling et al., 2006) were employed. […] These two cell lines also expressed high levels of pSer^1100-IRS-2 (FIG. 4). […] There is no specific antibody for Ser^42-phosphorylated CDC25b.
# [5] = tested on: pIRS-2 pulsed C1R-A2 or C1R-AAD target cells; assay: IFN-γ ELISA of TCR-expressing human CD8 T-cells with pulsed C1R-A2 or C1R-AAD targets (pIRS-2); format: cell-based; conditions: 18-20 hours co-culture
# Experimental: Human CD8 T-cells were electroporated with IVT RNA encoding murine TCR αβ chains specific for pIRS-2 (pIRS2 BK TCR; FIG. 10A; SEQ ID NO: 2) or pDesmuslin (A10 (right to left hatched boxes) or A11 (left to right hatched boxes) TCR chains; FIG. 10B), and assayed 12-14 hours later. TCR-expressing human CD8 T-cells were co-cultured for 18-20 hours with C1R-A2 or C1R-AAD pulsed or unpulsed target cells. Supernatants were then harvested and IFN-γ was detected by ELISA. No RNA controls underwent electroporation with no addition of IVT RNA (open squares).
# [6] = recognized / evaluated cell lines
molecule,measurement,setting,value
RVApSPTSGV (RVA[pS]PTSGV; listed as Homo sapiens) [pIRS-21097-1105],immunogenicity in vitro for human T-cells,human CD8 T-cells,strongly immunogenic
same,donors with pre-existing memory response,human CD8 T-cells,2/4
same,magnitude of phosphopeptide-specific IFN-γ responses of normal donor T-cells,human CD8 T-cells,surprisingly high
same,immunogenicity in vivo for HLA-A2 transgenic mice,[1],strongly immunogenic
GLLGpSPVRA (GLLG[pS]PVRA; listed as Homo sapiens) [pCDC25b38-46],immunogenicity in vitro for human T-cells,human CD8 T-cells,strongly immunogenic
same,donors with pre-existing memory response,human CD8 T-cells,all four and four
same,magnitude of phosphopeptide-specific IFN-γ responses of normal donor T-cells,human CD8 T-cells,surprisingly high
same,immunogenicity in vivo for HLA-A2 transgenic mice,[1],strongly immunogenic
"pCDC25b-specific TCR: murine TCR binding GLLGpSPVRA/HLA-A2; α chain SEQ ID NO: 14, β chain SEQ ID NO: 16; tested expressed in human CD8 T-cells (protein, listed as Mus musculus) alpha: MKTVTGPLFLCFWLQLNCVSRGEQVEQRPPHLSVREGDSAVIICTYTDPNSYYFFWYKQEPGAGLQLLMKVFSSTEINEGQGFTVLLNKKDQQLSLNLTAAHPGDSAVYFCAVKPGGYKVVFGSGTRLLVSPDIQNPEPAVYQLKDPRSQDSTLCLFTDFDSQINVPKTMESGTFITDKTVLDMKAMDSKSNGAIAWSNQTSFTCQDIFKETNATYPSSDVPCDATLTEKSFETDMNLNFQNLSVMGLRILLLKVAGFNLLMTLRLWSS beta: MSNTAFPDPAWNTTLLSWVALFLLGTKHMEAAVTQSPRNKVAVTGGKVTLSCNQTNNHNNMYWYRQDTGHGLRLIHYSYGAGSTEKGDIPDGYKASRPSQENFSLILELATPSQTSVYFCASGGDTQYFGPGTRLLVLEDLRNVTPPKVSLFEPSKAEIANKQKATLVCLARGFFPDHVELSWWVNGKEVHSGVSTDPQAYKERNYSYCLSSRLRVSATFWHNPRNHFRCQVQFHGLSEEDKWPEGSPKPVTQNISAEAWGRADCGITSASYHQGVLSATILYEILLGKATLYAVLVSGLVLMAMVKKKNS",recognition of phosphopeptide-pulsed targets expressing HLA-A2 compared with AAD,[2],at least as well as those expressing AAD
same,response to HLA-A2+ targets pulsed with high levels of the non-phosphorylated peptide,[2]; IFN-γ / CD107a,Neither cell produced IFN-γ or upregulated CD107a
same,EC50,"[2]; human CD8 T-cells electroporated with TCR IVT RNA, phosphopeptide-pulsed AAD+ targets, IFN-γ / CD107a, read-out: peptide dose for half-maximal recognition",0.4 to 0.8 nM
same,specific killing of peptide-pulsed targets,[3],killed pCDC25b38-46-pulsed but not pIRS-21097-1105 or pβ-catenin30-39-pulsed targets
same,tumor-free survival,"AAD+ SLM2 melanoma cells; T-cells on days 3 and 7 plus IL-2, versus IL-2 only control, tumor-free = tumor size not >30 mm^2",enhanced tumor-free survival
same,tumor outgrowth in comparison to control animals,AAD+ SLM2 melanoma cells; control received IL-2 only,delayed outgrowth
same,recognition (CD107a / IFN-γ) of HLA-A2+ melanoma cell lines MelSwift and 1102Mel,[4],recognized two HLA-A2^+ melanomas
same,recognition of HLA-A2+ EBV-transformed lymphoblastoid cell line JY,[4],did recognize
same,recognition of HLA-A2neg cancer cells T47D and SK-Mel-28,[4],did not recognize
same,recognition of HLA-A2neg melanoma SK-Mel-28 or HLA-A2+ antigen-low ovarian carcinoma OV-90,[4],failed to recognize
same,level of recognition of cancer cells,[4]; compared with peptide-pulsed targets,relatively low
same,HLA-A2+ breast carcinomas recognized,[4]; [6],3/3
same,HLA-A2+ colorectal carcinomas recognized,[4]; [6],did not recognize
same,HLA-A2+ melanomas recognized,[4]; [6],3/4
same,HLA-A2+ ovarian carcinomas recognized,[4]; [6],did not recognize
"pIRS2 BK TCR: second murine TCR specific for the IRS-2 phosphopeptide; α chain SEQ ID NO: 8, β chain SEQ ID NO: 10 (protein, listed as Mus musculus) alpha: MLLALLPVLGIHFVLRDAQAQSVTQPDARVTVSEGASLQLRCKYSYSGTPYLFWYVQYPRQGLQLLLKYYSGDPVVQGVNGFEAEFIKSNSSFHLRKASVHWSDSAVYFCAVSAGSGGKLTLGAGTRLQVNLDIQNPEPAVYQLKDPRSQDSTLCLFTDFDSQVNVPKTMESGTFIADKTVLDMKAMDSKSNGAIAWSNQTSFTCQDIFKETNATYPSSDVPCDATLTEKSFETDMNLNFQNLSVMGLRILLLKVAGFNLLMTLRLWSS beta: MGSRLFFVVLILLCAKHMEAAVTQSPRSKVAVTGGKVTLSCHQANNHDYMYWYRQDTGHGLRLIHYSYVADSTEKGDIPDGYKASRPSQENFSLILELASLSQTAVYFCASSDRDNYAEQFFGPGTRLTVLEDLRNVTPPKVSLFEPSKAEIANKQKATLVCLARGFFPDHVELSWWVNGKEVRSGVSTDPQAYKESNYSYCLSSRLRVSATFWHNPRNHFRCQVQFHGLSEEDKWPEGSPKPVTQNISAEAWGRADCGITSASYHQGVLSATILYEILLGKATLYAVLVSGLVLMAMVKKKNS",recognition of HLA-A2+ targets and effector function (IFN-γ ELISA),[5],conferred recognition of HLA-A2+ targets and effector function
